The target of the experiment is PSI core complex (Haematococcus pluvialis (endogenous in strain K-0084)). As to the kind of experiment: estimate from pigment ratios (HPLC) of the isolated B5 fraction; from Chl a/b and Chl/Car ratios, assuming 3.4 Cars per Lhca subunit and 100 Chl a per PSI core complex.

For one substance, stoichiometry N (Lhca proteins per P700) results are on record in article PMC5701160.

LHCI antenna proteins: the stoichiometry N (Lhca proteins per P700) was 5.
